Experimental data from article PMC7688343, “GDF6-CD99 Signaling Regulates Src and Ewing Sarcoma Growth” (Cell reports, 2020).
Substitutions are numbered along the chain they refer to.

Columns and labels:
Assay in all cases: MST; CD99-Fc labelled with RED-NHS 2nd generation, in PBS/0.005% Tween-20; GDF6 prodomain from transfected 293T cells serially diluted in Opti-MEM; 30 minutes at room temperature; Monolith NT.115
Details in all cases: one partner purified
[1] = molecular target: T1, GDF6 prodomain (residue 1 - 335) (UniProt Q6KF10 23-335)
T1 construct: signal peptide in the construct; GDF6 (BMP13) prodomain, residue 1-335; Construct of the microscale thermophoresis; no tag and no purification are stated; also called wild-type GDF6 prodomain
T1 sequence (looked up): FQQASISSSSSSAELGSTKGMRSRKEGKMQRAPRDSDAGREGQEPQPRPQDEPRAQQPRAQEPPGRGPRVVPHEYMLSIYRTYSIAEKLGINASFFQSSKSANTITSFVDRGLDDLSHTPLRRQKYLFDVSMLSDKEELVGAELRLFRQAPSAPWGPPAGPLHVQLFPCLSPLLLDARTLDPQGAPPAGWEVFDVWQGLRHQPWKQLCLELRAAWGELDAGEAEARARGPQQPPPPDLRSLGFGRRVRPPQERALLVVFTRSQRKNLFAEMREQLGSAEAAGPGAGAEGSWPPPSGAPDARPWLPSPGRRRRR

[2] = molecular target: T2, GDF6 A249E prodomain (UniProt Q6KF10 23-335, A249E)
T2 construct: signal peptide in the construct; GDF6 prodomain with the Klippel-Feil syndrome mutation A249E; limits as stated for the wild type in the same sentence (residue 1-335); Construct of the microscale thermophoresis; mutation recurrent in Klippel-Feil syndrome patients
T2 sequence (looked up): T1 sequence (looked up) with A227E

[3] = molecular target: T3, GDF6 L289P prodomain (UniProt Q6KF10 23-335, L289P)
T3 construct: signal peptide in the construct; GDF6 prodomain with the Klippel-Feil syndrome mutation L289P; limits as stated for the wild type in the same sentence (residue 1-335); Construct of the microscale thermophoresis; mutation recurrent in Klippel-Feil syndrome patients
T3 sequence (looked up): T1 sequence (looked up) with L267P

B1: Recombinant human CD99-Fc fusion protein (residue 23 - 122) (Fc fusion, UniProt P14209 23-122, looked up)
chain: DGGFDLSDALPDNENKKPTAIPKKPSAGDDFDLGDAVVDGENDDPRPPNPPKPMPNPNPNHPSSSGSFSDADLADGVSGGEGKGGSDGGGSHRKEGEEAD
modifications: RED-NHS 2nd generation dye, amine reactive (labelled for the microscale thermophoresis only)
notes: The source is stated for the MST; the protein A Sepharose pull-down names the same limits and tag but no source; source: bought: R&D Systems (3968-CD-050); not shown: Fc, C-terminal, kept
Kd [1]: 17.2 nM
Kd [2]: 3.34 nM
Kd [3]: 2.26 nM
